Columns and labels:
PD-1/Fc = target: T1, PD-1/Fc (UniProt Q15116 25-167); test: Biacore SPR: antibody captured by anti-human Fab on a CM5 chip, PD-1/Fc as analyte
T1 construct: also called PD-1/Fc抗原; PD-1/Fc融合蛋白; not shown: Fc part of the fusion

CTLA4/Fc = target: T2, CTLA4/Fc (UniProt P16410 36-162, limits assumed); test: indirect ELISA, antigen coated at 1 μg/mL, goat anti-human F(ab')2-HRP
T2 construct: not shown: Fc part of the fusion
T2 sequence (looked up): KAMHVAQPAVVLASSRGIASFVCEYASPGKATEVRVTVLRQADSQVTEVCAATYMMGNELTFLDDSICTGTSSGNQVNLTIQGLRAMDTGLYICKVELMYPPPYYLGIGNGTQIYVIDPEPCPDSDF

BTLA/Fc = target: T3, BTLA/Fc (UniProt Q7Z6A9 31-157, limits assumed); test: as above
T3 construct: not shown: Fc part of the fusion
T3 sequence (looked up): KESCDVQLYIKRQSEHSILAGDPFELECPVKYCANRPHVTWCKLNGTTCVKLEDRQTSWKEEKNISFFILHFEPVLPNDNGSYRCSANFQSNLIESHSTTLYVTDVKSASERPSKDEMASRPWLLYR

ICOS/Fc = target: T4, ICOS/Fc (UniProt Q9Y6W8 21-141); test: as above
T4 construct: not shown: Fc part of the fusion
T4 sequence (looked up): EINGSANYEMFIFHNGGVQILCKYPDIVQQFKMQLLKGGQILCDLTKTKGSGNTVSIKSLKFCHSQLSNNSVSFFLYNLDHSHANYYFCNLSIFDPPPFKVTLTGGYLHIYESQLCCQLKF

CD28/Fc = target: T5, CD28/Fc (UniProt P10747 19-152); test: as above
T5 construct: not shown: Fc part of the fusion
T5 sequence (P10747 19-152 limits assumed): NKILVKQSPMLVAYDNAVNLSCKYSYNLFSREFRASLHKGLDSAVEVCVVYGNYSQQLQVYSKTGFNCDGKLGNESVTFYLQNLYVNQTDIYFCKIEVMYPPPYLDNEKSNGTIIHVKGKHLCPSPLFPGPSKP

T1 sequence (Q15116 25-167 limits assumed): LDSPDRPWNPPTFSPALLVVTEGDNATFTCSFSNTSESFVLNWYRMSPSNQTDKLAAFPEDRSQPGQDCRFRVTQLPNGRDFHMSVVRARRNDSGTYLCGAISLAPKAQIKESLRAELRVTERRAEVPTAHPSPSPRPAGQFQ

B1: 本发明制备的抗PD-1抗体 (anti-PD-1 monoclonal antibody of the invention) (antibody, V domains shown)
VH: QVQLVESGGGVVQPGRSLRLNCKASGITFSNSGMHWVRQAPGKGLEWVAVIWYDGSKLYYADSVKGRFTISRDNSKNTLFLQMNSLRAEDTAVYYCATDSDYWGQGTLVTVSS
VL: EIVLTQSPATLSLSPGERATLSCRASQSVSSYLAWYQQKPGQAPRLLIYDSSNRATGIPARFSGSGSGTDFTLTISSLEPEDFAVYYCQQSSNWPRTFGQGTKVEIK
notes: Variable regions cloned into the full-length antibody vector PRT/KIgG1 (IgG1 heavy constant region CH1-CH2-CH3, kappa light constant region); also called 本发明制备抗体
B1 gave a Kd (PD-1/Fc) of 328 pM, a koff (PD-1/Fc) of 9.6e-05 s⁻¹ and a kon (PD-1/Fc) of 292000 M⁻¹ s⁻¹. B1: no binding (tested: antibody at 1 μg/mL) (CTLA4/Fc); no binding (tested: antibody at 1 μg/mL) (BTLA/Fc); no binding (tested: antibody at 1 μg/mL) (ICOS/Fc). B1: no binding (tested: antibody at 1 μg/mL) (CD28/Fc).
